According to article PMC13627713:

Molecular target: Smc5/6 hexamer (wild type) (Saccharomyces cerevisiae W303, UniProt Q08204;Q12749;Q07913;P38632;Q05541;P43124 1-1093;1-1114;1-336;1-267;1-303;1-402)
Assay: EMSA

B1: DB20 20-bp DNA (dsDNA)
DNA 1: TATTTACTTTATGTTCATTT
DNA 2: AAATGAACATAAAGTAAATA
binding result: binds
